Measurements reported in patent US20060142546A1, “Immunogenic muc1 glycopeptides” (priority 2002, published 2006).
Blank lines part the entries; values can stand above or below the compound they belong to. Where a SMILES comes first, the peptide text is derived from it. Where no end group is shown, it is not given here. The star is where a group is joined. Cbz = O=C(OCc1ccccc1)*; CH2F = FC*

Columns and labels:
[1] = tested on: Cathepsin L-like activity in low-density endosomes from mouse dendritic cells; experiment: Proteolysis of TAP25 by low-density endosomal fractions from mouse dendritic cells; type: biochemical; conditions: 1 μM inhibitor, TAP25 as substrate
Experimental: Mouse dendritic cells (10^8) were homogenized by fine-needle aspiration on ice using 1 ml of 0.3 M sucrose, 0.01 M Hepes as buffer (without protease inhibitors). After dilution to 7 ml and centrifugation at 850 g for 10 min to remove intact cells and nuclei, 6 ml of the supernatant were centrifuged over 24 ml of 30% Percoll with 0.3 M sucrose, 0.01 M Hepes for 105 min at 20.000 rpm in a centrifuge (model J2-21 M/E, rotor: JA-20, Beckman instruments, München, Germany) (Barnes et al., J. Exp. Med. 181 (1995), 1715-1727). The gradient was fractionated by gravity siphon (30×1 ml) and each fraction was analysed after sonication for the presence of MHC class II molecules by enzyme immunoassay with anti-H2 antibody (rat hybridoma cell line M1/42.3.9.8.HLK obtained from the ATCC), β-hexosamimidase activity (Barnes et al., 1995) and cathepsin L related proteolytic activity using TAP25 peptide as substrate (5 μg). The samples were incubated for 24 h at 37° C., diluted 20 fold in aqueous TFA and analysed by MALDI mass spectrometry. For specific inhibition of cathepsin L activity, the corresponding fractions were mixed with 1 μM Z-Leu-Leu-Leu-fluoromethyl ketone (Sigma).

human cathepsin L = target: T1, human cathepsin L (Homo sapiens, UniProt P07711); experiment: In vitro proteolysis of native MUC1 and MUC1 (glyco)peptides with human cathepsin L; type: biochemical; conditions: for proteolysis by cathepsin L: 3 h or 24 h
T1 construct: in the cathepsin L preparation from human liver; purchased Sigma (München, Germany); host or cells: human liver
Experimental: FIG. 4: In vitro proteolysis of MUC1 glycopeptide A3 by human cathepsin L. N-terminally free or biotinylated MUC1 glycopeptide A3 (10 μg) were treated for 3 h with 1 milliunit of cathepsin L in the presence or absence of the cathepsin L/B-specific cysteine protease inhibitor Z-Leu-Leu-Leu-fluoromethyl ketone (1 μM) using 0.1M sodium acetate, pH 5.5, containing 1 mM EDTA, and 1 mM DTT as reaction buffer.
Human cathepsins L and D were purchased from Sigma (München, Germany) and solubilized in 0.1 M sodium acetate buffer, pH 5.5, containing 1 mM EDTA (cathepsin D) and 1 mM dithiotreitol (cathepsin L). 2-5 units of enzyme(s) were added to 100 μg of mucin or recombinant fusion protein or to 10 μg of (glyco)peptide substrates in a total volume of 20 μl digestion buffer (see above). The reaction mixtures were incubated at 37° C. and 2 μl were withdrawn after 3 h or 24 h and diluted 20 fold in 0.1% aqueous TFA prior to MALDI mass spectrometry. In case of native MUC1 samples with complex O-glycosylation (MUC1 from tumor ascites, HMFG-MUC1, partially deglycosylated HMFG-MUC1, and MFP6 fusion protein) the digest was desalted by solid-phase extraction (ZipTip C18) and the (glyco)peptides were deglycosylated by β-elimination/ethylaminylation in 70% ethylamine at 50° C. as previously described (Müller and Hanisch, J. Biol. Chem. 277 (2002), 26103-26112). Each glycosylated position in the peptide fragments corresponds to the addition of a 27 u mass increment.

[2] = tested on: human immature dendritic cells; experiment: Processing of MUC1 antigen by human monocyte-derived dendritic cells (antigen pulse, MALDI/LC-MS of fragments); type: cell-based; conditions: cellular lysate or culture supernatant, mass range up to 8 kDa
Experimental: Human immature DCs were pulsed with native, N-terminally unmodified, soluble antigens, while the mature mouse DCs had to be fed with particulate antigen to reach sufficient antigen load. […] Simultaneously, the maturation process of the cells was induced by addition of 20 ng/ml tumor necrosis factor (TNF-α; Sigma-Aldrich, Munich, Germany) and 10 μg/ml of anti-CD40 antibody (Pharmingen, San Diego, Calif.). The cells were finally separated from medium by centrifugation, washed in PBS and both fractions were analysed for the presence of peptide/glycopeptide fragments according to the protocol described below.
The human or mouse dendritic cell fractions were treated on ice for 15 min with 100 μl 1% NP40, 10 mM Tris-HCl, 150 mM NaCl, pH 8.0 containing a cocktail of protease inhibitors (Sigma P8340, München, Germany) followed by ultrasonication for 2 min. […] To avoid selection of product subfractions by affinity-isolation, in most experiments the peptides were enriched by solid-phase extraction on reversed-phase columns.
Peptides and glycopeptides contained in the cell-free supernatants were affinity-isolated by solid-phase extraction on reversed-phase supports (100 μg polysphere C18, 50 μl Poros C18). […]

T1 sequence (P07711 114-288 limits assumed): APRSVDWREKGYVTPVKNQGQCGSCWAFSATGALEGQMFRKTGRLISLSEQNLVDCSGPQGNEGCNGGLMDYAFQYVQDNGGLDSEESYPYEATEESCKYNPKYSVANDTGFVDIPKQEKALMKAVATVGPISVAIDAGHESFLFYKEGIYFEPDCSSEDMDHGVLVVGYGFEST
T1 sequence (P07711 292-333 limits assumed): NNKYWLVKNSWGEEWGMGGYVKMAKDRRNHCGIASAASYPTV

inhibition of catalytic activity directed to the Thr-Ser bond (human cathepsin L; inhibitor 1 μM, substrate glycopeptide A3): specifically inhibited
Compound: CC(C)C[C@H](NC(=O)[C@H](CC(C)C)NC(=O)[C@H](CC(C)C)NC(=O)OCc1ccccc1)C(=O)CF [Z-Leu-Leu-Leu-fluoromethyl ketone, reference compound] (Cbz-Leu-Leu-Leu-CH2F)
inhibition of cysteine protease in low density endosomes [1]: inhibitable

proteolysis by cathepsin L (human cathepsin L; pH 5.5, 1 mM DTT, 37° C.): not digested
Compound: HMFG-MUC1: mucin from human milk fat globule membranes

Compound: GST20-AES (GSTAPAAHGVTSAPESRPAP; also: glycosylated, sites not given here)
structural assignment of product (human cathepsin L; Table 2, 3 h, 37° C., pH 5.5): SAP9 | Average mass of production (mass range 500-4500 Da) (human cathepsin L; Table 2, synthetic monomeric repeat peptides, N-terminally unmodified, 3 h, 37° C., pH 5.5, 1 mM DTT): 910.8 Da | cleavage (human cathepsin L; standard conditions for cysteine proteases, incubation 3 h): 80%

proteolysis by cathepsin L (human cathepsin L; pH 5.5, 1 mM DTT, 37° C.): not digested
Compound: Asc-MUC1: MUC1 from pooled human tumor ascites
fragmentation of antigen [2]: No fragmentation

proteolysis by cathepsin L (human cathepsin L; pH 5.5, 1 mM DTT, 37° C.): stable to proteolysis
Compound: AHGVTSAPESRPAPGSTAPAA (not fully specified (residue 5); also: GalNAc glycan at Thr5 (H4), Ser10 (H5) or Thr17 (H6), which one is not fixed for this name, biotinylated)

structural assignment of repeat fragment ion (human cathepsin L; Table 3, native mucin, after de-O-glycosylation/ethylaminylation): GVT20 + 1-4 HexNAc
Compound: GalNAc-MUC1: partially deglycosylated HMFG-MUC1
proteolysis by cathepsin L (human cathepsin L; pH 5.5, 1 mM DTT, 37° C.): fragmentation by cathepsin L at low efficiency
